Experimental data taken from PMC9592557, “Structures of SAS-6 coiled coil hold implications for the polarity of the centriolar cartwheel” (Structure(London, England:1993), 2022).
Substitutions are numbered along the chain they refer to. Numbers in names are those of the source.

B1: CrSAS-6_CC_(Middle) (domain or fragment)
chain: KLREVKYELDTKVSELSHKLGSSEGSNRSLEEETARLRSLNQQLSSSKHELEIQLNEAKAKVLALDEKAQSQGDVIEQQRGRLRDMEAALRQTEQRCADLRDTLASAEGRAKEA
B2: CrSAS-6NL (domain or fragment, C. reinhardtii, UniProt A9CQL4 1-503, looked up)
chain: MPLLLDDGDPKAQTGFDLSTATTLFWRPVPVHVKQQDREDVLEELTFRILTGVAKQNHNLRILRIHISSDSDLFFLHTLEVSEEDFQSLKNDQGILVDFASFPGKIISLLEKCILAQPGDSPRFQAVLTIRGGESVFKIVEINDFKQLPHITLAFRPGNDSVVKQFLAFRLSEVKGTCHDLSDDLSRTRDDRDSMVAQLAQCRQQLAQLREQYDKHLLEVQAQAKTQQASAHEERIREKSQLKDQFEKERGEMEGRYRDQIAALNTRLGELDTENRKLREVKYELDTKVSELSHKLGSSEGSNRSLEEETARLRSLNQQLSSSKHELEIQLNEAKAKVLALDEKAQSQGDVIEQQRGRLRDMEAALRQTEQRCADLRDTLASAEGRAKEAQAEVLKGNQAIEKLTNDLRLAKEKTKRKAAIILRQEEELQEREQSLANATRDVGVLGQQAESLRKDVASLHSENDSLRSKLEDSKQQLQSNEQMIRWLNQQVTEAQLHASGAT
notes: C. reinhardtii SAS-6, residues 1-503: head domain and full-length coiled-coil domain, without the disordered C-terminal tail; also called WT CrSAS-6NL; C. reinhardtii SAS-6 (1-503); source: E. coli BL21(DE3), purified (HiTrap Talon, 3C cleavage, SEC); not shown: His6, N-terminal, cleaved
B3: CrSAS-6LE (domain or fragment, C. reinhardtii, UniProt A9CQL4 1-503, looked up)
chain: B2 chain with L306A, E326A
notes: C. reinhardtii SAS-6, residues 1-503, control mutant; also called C. reinhardtii SAS-6 (1-503; L306A/E326A); source: E. coli BL21(DE3), purified (HiTrap Talon, 3C cleavage, SEC); not shown: His6, N-terminal, cleaved
B4: CrSAS-6LQ (domain or fragment, C. reinhardtii, UniProt A9CQL4 1-503, looked up)
chain: B2 chain with L320A, Q330A
notes: C. reinhardtii SAS-6, residues 1-503, control mutant; also called C. reinhardtii SAS-6 (1-503; L320A/Q330A); source: E. coli BL21(DE3), purified (HiTrap Talon, 3C cleavage, SEC); not shown: His6, N-terminal, cleaved
B5: CrSAS-6LD (domain or fragment, C. reinhardtii, UniProt A9CQL4 1-503, looked up)
chain: B2 chain with L339E, D378N
notes: C. reinhardtii SAS-6, residues 1-503, mutant aimed at the symmetric coiled-coil complex; also called C. reinhardtii SAS-6 (1-503; L339E/D378N); source: E. coli BL21(DE3), purified (HiTrap Talon, 3C cleavage, SEC); not shown: His6, N-terminal, cleaved
B6: CrSAS-6VD (domain or fragment, C. reinhardtii, UniProt A9CQL4 1-503, looked up)
chain: B2 chain with V351E, D361N
notes: C. reinhardtii SAS-6, residues 1-503, mutant aimed at the asymmetric coiled-coil complex; also called C. reinhardtii SAS-6 (1-503 V351E/D361N); source: E. coli BL21(DE3), purified (HiTrap Talon, 3C cleavage, SEC); not shown: His6, N-terminal, cleaved

How the values were obtained:
[1] = biological target: HsSAS-6_CC_(Middle) (human) (UniProt Q6UVJ0); assay: SEC-MALS; step: monomers to the coiled-coil dimer; Superdex 75 or 200 10/300 GL, 10 mM K-PIPES pH 7.2
[2] = biological target: DrSAS-6_CC_(Middle) (Danio rerio) (UniProt Q7ZVT3); assay: as above
ITC = biological target: the molecule itself; assay: ITC
[3] = biological target: CrSAS-6_CC_(Middle) (C. reinhardtii) (UniProt A9CQL4); assay: ITC; dilution ITC, step: higher-order complex to coiled-coil dimers; 1.82 mM monomer in the syringe injected into buffer alone, 20°C, 10 mM K-PIPES pH 7.2, dissociation model
[4] = biological target: CrSAS-6_CC_(Middle) (C. reinhardtii) (UniProt A9CQL4); assay: SEC-MALS; step: monomers to the coiled-coil dimer; Superdex 75 or 200 10/300 GL, 10 mM K-PIPES pH 7.2
[5] = biological target: the molecule itself; assay: cryo-EM cartwheel reconstitution (ring stacking) assay; purified protein dialysed overnight at 4°C into 10 mM K-PIPES pH 7.2 (no salt), vitrified, isolated cartwheels analysed

Molecule | binding result [5] | further results
HsSAS-6_CC_(Middle) (from UniProt Q6UVJ0 211-312) (domain or fragment) |  | stoichiometry N [1]: 2
DrSAS-6_CC_(Middle) (from UniProt Q7ZVT3 243-358) (domain or fragment) |  | stoichiometry N [2]: 2
B1 |  | Kd (ITC): 2300 µM; dH [3]: 1 kcal/mol; stoichiometry N [4]: 2
B2 | binds | 
B3 | binds | 
B4 | binds | 
B5 | binds | 
B6 | binds | 
